The chains are these.
B2: Os006819-2510 aa 1-273 (other)
chain: MAFRLSNSLLGILNAVTFLLSVPVLGGGIWLATRADGTECERYFSAPVIAFGVFLLLVSLAGLVGACCRVNCLLWFYLVAMFVLIVVLFCFTVFAFVVTNKGAGEAVSGRGYKEYRLGDYSNWLQKRMENSKNWNRIRSCLQDSKVCKKLQDKNWDRTQFFKADLSPLESGCCKPPSSCNFLYVSGTNWTKVPTNSSDPDCNTWVDDGTQLCYNCQSCKAGAVATLKRDWKRVAVVCIVFLVFIVIVYSLGCCAFRNNRRDNRGAYRGAAWKG
notes: bait, Gal4 DBD fusion; also called PN20462
B7: Os006819-2510 aa 1-150 (other)
chain: MAFRLSNSLLGILNAVTFLLSVPVLGGGIWLATRADGTECERYFSAPVIAFGVFLLLVSLAGLVGACCRVNCLLWFYLVAMFVLIVVLFCFTVFAFVVTNKGAGEAVSGRGYKEYRLGDYSNWLQKRMENSKNWNRIRSCLQDSKVCKKL
notes: bait, Gal4 DBD fusion; also called PN20462; Hypothetical Protein 006819-2510, Similar to Senescence-Related Protein 5 from Hemerocallis Hybrid Cultivar

Assay [1] addresses B7. The experiment in a line: Y2H; input trait library. In outline: (§1)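 Myriad Genetics Inc. (Salt Lake City, Utah) supplied the automated, high-throughput yeast two-hybrid assay used to detect protein-protein interactions. A bait clone encoding a defined amino-acid fragment of a rice protein was screened against a rice prey library, either the input trait or the output trait library. To identify the interacting proteins, prey clones were retrieved and their encoding sequences were compared against databases by BLAST.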

Another assay concerns the target T1, OsPN23485 aa 90-243 (Oryza sativa, UniProt Q7XPL2 165-318).
T1 construct: prey, AD fusion; also called Novel Protein PN23485, Similar to Hordeum vulgare Coproporphyrinogen III Oxidase, chloroplast precursor
T1 sequence: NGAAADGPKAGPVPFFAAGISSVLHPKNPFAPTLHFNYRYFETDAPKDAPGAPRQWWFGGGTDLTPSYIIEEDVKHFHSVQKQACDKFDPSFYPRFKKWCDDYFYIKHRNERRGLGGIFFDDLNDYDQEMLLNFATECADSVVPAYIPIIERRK
The assay can be described thus: Y2H; output trait library. The procedure, abridged: as §1

For the next assay, the target named is T2, OsSGT1 aa 200-368 (Oryza sativa, UniProt Q0JL44 200-367).
T2 construct: bait, Gal4 DBD fusion; also called PN20285
T2 sequence: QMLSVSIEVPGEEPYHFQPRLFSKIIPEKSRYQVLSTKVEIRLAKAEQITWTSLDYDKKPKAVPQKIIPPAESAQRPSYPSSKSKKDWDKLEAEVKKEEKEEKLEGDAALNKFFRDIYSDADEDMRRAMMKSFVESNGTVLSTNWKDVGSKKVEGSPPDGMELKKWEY
The experiment in a line: Y2H; input trait library. In outline: as §1

Assay [2] addresses B7. The assay can be described thus: Y2H; output trait library. In outline:
as §1

The target of the assay “Os006819-2510 aa 1-273” is B2. The assay can be described thus: Y2H; output trait library. In outline: as §1
The target in the next assay is T3, OsPN23053 aa 1-180 (Oryza sativa, UniProt Q8W0H5 141-320).
T3 construct: prey, AD fusion; also called Novel Protein 23053, Fragment, Similar to Arabidopsis Putative Na+-Dependent Inorganic Phosphate Cotransporter
T3 sequence: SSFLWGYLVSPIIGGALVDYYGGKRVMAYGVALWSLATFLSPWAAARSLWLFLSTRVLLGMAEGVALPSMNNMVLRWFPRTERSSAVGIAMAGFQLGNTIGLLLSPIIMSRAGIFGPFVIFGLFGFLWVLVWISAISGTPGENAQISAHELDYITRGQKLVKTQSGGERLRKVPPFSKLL
The experiment in a line: Y2H; input trait library. The procedure, abridged:
as §1

A further assay deals with T4, OsEXPB2 aa 80-218 (Oryza sativa, UniProt O24230 80-218).
T4 construct: prey, AD fusion; also called PN19902
T4 sequence: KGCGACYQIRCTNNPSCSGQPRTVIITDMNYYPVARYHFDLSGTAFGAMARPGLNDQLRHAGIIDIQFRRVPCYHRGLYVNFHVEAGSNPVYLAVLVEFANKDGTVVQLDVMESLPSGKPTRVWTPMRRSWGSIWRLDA
The assay can be described thus: Y2H; input trait library. In outline:
as §1

The target in a further assay is T5, OsAAK01712 aa 90-221 (Oryza sativa, UniProt Q7Y0Y8 90-221).
T5 construct: prey, AD fusion; also called PN24059; O. sativa Histone Deacetylase HD1
The assay can be described thus: Y2H; output trait library. In outline:
as §1

For another assay, the target named is T6, Os003118-3674 aa 75-149 (Oryza sativa, UniProt Q84VG0 75-148).
T6 construct: bait, Gal4 DBD fusion; also called PN20551
T6 sequence: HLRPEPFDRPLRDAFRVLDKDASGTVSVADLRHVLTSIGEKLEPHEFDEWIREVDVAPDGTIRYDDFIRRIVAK
The assay can be described thus: Y2H; output trait library. The procedure, abridged:
as §1

The next assay deals with T7, OsSSS aa 97-263 (Oryza sativa, UniProt A2Y9M4 97-263).
T7 construct: prey, AD fusion; also called PN19701
T7 sequence: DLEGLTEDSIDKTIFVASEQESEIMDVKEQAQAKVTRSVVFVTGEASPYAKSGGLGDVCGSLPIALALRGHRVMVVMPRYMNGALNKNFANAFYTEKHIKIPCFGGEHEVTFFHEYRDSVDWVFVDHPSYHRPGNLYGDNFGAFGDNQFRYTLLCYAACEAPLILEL
The assay can be described thus: Y2H; output trait library. The procedure, abridged:
as §1

The target of a further assay is T8, OsSSS aa 68-270 (Oryza sativa, UniProt A2Y9M4 68-270).
T8 construct: prey, AD fusion; also called PN19701; Soluble Starch Synthase
T8 sequence: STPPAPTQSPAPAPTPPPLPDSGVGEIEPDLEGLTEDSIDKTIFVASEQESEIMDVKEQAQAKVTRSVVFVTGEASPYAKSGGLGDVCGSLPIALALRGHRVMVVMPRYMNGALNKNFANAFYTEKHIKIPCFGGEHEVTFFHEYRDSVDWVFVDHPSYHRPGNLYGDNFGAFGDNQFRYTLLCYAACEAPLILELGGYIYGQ
The experiment in a line: Y2H; input trait library. In outline: as §1

In a further assay the target is T9, OsRBCL aa 287-462 (Oryza sativa, UniProt P0C510 287-462).
T9 construct: prey, AD fusion; also called PN23426; O. sativa Chloroplast Ribulose Bisphosphate Carboxylase, Large Chain
The experiment in a line: Y2H; input trait library. The procedure, abridged: as §1

A further assay concerns the target T10, Os005792-3529 aa 1-55 (Oryza sativa).
T10 construct: bait, Gal4 DBD fusion; also called PN20080; Hypothetical Protein 005792-3529 Similar to O. sativa Receptor Kinase
T10 chain: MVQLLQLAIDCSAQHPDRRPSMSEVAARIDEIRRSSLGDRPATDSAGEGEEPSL
The experiment in a line: Y2H; output trait library. In outline:
as §1

Another assay has as its target T11, OsEXPB2 aa 80-207 (Oryza sativa, UniProt O24230 80-207).
T11 construct: prey, AD fusion; also called PN19902; Beta-Expansin EXPB2
T11 sequence: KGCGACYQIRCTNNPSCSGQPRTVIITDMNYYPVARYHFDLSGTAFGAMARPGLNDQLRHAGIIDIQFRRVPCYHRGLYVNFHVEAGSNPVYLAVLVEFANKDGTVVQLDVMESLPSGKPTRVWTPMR
The experiment in a line: Y2H; input trait library. The procedure, abridged: as §1

T9 sequence (P0C510 287-462): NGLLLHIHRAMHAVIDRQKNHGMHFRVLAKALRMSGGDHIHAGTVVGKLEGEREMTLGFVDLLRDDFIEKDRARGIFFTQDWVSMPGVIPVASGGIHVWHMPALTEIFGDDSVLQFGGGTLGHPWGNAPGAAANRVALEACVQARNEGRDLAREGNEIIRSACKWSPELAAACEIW
T5 sequence (Q7Y0Y8 90-221): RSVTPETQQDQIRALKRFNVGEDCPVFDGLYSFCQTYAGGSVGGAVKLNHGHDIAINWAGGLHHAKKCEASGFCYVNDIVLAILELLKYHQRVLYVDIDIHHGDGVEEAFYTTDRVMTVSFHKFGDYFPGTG

B1: OsPN29037 aa 73-165 (other)
chain: VVFDKDGVLEQIGEGKGYVDMSTVDAATSCKISEAIKQKGGAFVEAPVSGSKKPAEDGQLVILAAGDKVLYDDMVPAFDVLGKKSFFLGEIGN
notes: prey, AD fusion; also called Novel Protein PN29037
Consider B1, for which the binding result in the assay with Os006819-2510 aa 1-150 [1] is given as “binds”. With B2, in the assay with OsPN23485 aa 90-243, the binding result is “binds”.

B3: PN20696 (OsERP) aa 54-144 (other)
chain: ETFMFSVTHNATELIIKLMDSDSGTDDDFVGEATISLEAIYTEGSIPPTVYNVVKEEEYRGEIKVGLTFTPEDDRDRGLSEEDIGGWKQSS
notes: prey, AD fusion; also called Elicitor responsive protein
As to B3, the binding result in the assay with OsSGT1 aa 200-368 is given as “binds”.

B4: OsPN23878 aa 685-888 (other)
chain: IYEQGLVLQQLKCCGVLEVVRISRSGYPTRMTHQKFARRYGFLLLEDVASQDPLSVSVAILHQFNILPEMYQVGYTKLFFRTGQIGKLEDTRNRTLHGILRVQSCFRGHQARRHARERIRGVLALQSFIRGENARKMYSSLARKHRAAIILQRNLKCWLARRYFVNIRKASVVIQSGIRGCLVRRCAGNVDLLNVLREFESKKE
notes: prey, AD fusion; also called Oryza sativa Putative Myosin (AAL31066.1)
For the molecule B4, the binding result with Os006819-2510 aa 1-150 [2] is on record as “binds”.

B5: OsPN23226 aa 345-432 (other)
chain: WFMSNQETSFVTIGQRVLANPLRVRFHYGHPDIFDRLFHLTRGGVSKASKIINLSEDIFAGFNSTLREGNVTHHEYMQVGKGRDVGLN
notes: prey, AD fusion; also called Novel Protein PN23226, Callose synthase
B5: in the assay with Os006819-2510 aa 1-273, the binding result is listed as “binds”.

B6: OsDAD1 aa 30-115 (other)
chain: DLYVVFAVATALIQVVYMGIVGSFPFNSFLSGVLSCIGTAVLAVCLRIQVNKDNKEFKDLPPERAFADFVLCNLVLHLVIMNFLG
notes: bait, Gal4 DBD fusion; also called PN20251; O. sativa Defender Against Apoptotic Death 1
Turning to B6, the binding result with OsPN23053 aa 1-180 and with OsEXPB2 aa 80-218 was “binds” throughout. For B7, the binding result in the assay with OsAAK01712 aa 90-221 is “binds”.

B8: OsPN23878 aa 824-935 (other)
chain: SLARKHRAAIILQRNLKCWLARRYFVNIRKASVVIQSGIRGCLVRRCAGNVDLLNVLREFESKKEAEGDQILIKASFLAELQRRILKAEATVREKDEENEMLQQRLQQYENR
notes: prey, AD fusion
As for B8, the binding result in the assay with Os003118-3674 aa 75-149 is reported as “binds”.

B9: OsCRTC aa 250-425 (other)
chain: PKEIPDPDAKKPEAGADEEDGEWTAPTIRNPEYKGPWKQKKIKNPNYQGKWKPPMIATPDFQDDPYIYAFDSLKSIGIELWQVKSGTLFDNILITDDAALAKTFAEETWAKHKDAEKAAFDEAEKKKEEEEAAKAGEDDDDLDDEDAEDEDKADEKADSDAEDGKDSDDEKHDEL
notes: bait, Gal4 DBD fusion; also called PN20544
As for B9, the binding result with OsSSS aa 97-263 and with OsSSS aa 68-270 was “binds” in each case.

B10: OsGF14-c aa 1-150 (other)
chain: MSREENVYMAKLAEQAERYEEMVEYMEKVAKTVDVEELTVEERNLLSVAYKNVIGARRASWRIVSSIEQKEEGRGNEEHVTLIKEYRGKIEAELSKICDGILKLLDSHLVPSSTAAESKVFYLKMKGDYHRYLAEFKTGAERKEAAESTM
notes: bait, Gal4 DBD fusion; also called PN12464; O. sativa 14-3-3 Protein Homolog GF14-c
Take B10: the binding result in the assay with OsRBCL aa 287-462 is “binds”.

B11: OsPN23829 aa 3-220 (other)
chain: LSVEKTSSGREYKVKDLSQADFGRLEIELAEVEMPGLMACRAEFGPSQPFKGARISGSLHMTIQTAVLIETLTALGAEVRWCSCNIFSTQDHAAAAIARDSAAVFAWKGETLEEYWWCTERCLDWGVGGGPDLIVDDGGDATLLIHEGVKAEEEFEKSGKVPDPESTDNAEFKIVLTIIRDGLKSDPSKYRKMKERLVGVSEETTTGVKRLYQMQETG
notes: prey, AD fusion
In the case of B11, the binding result with Os005792-3529 aa 1-55 is recorded as “binds”.

B12: OsDAD1 aa 1-115 (other)
chain: MPRATSDAKLLIQSLGKAYAATPTNLKIIDLYVVFAVATALIQVVYMGIVGSFPFNSFLSGVLSCIGTAVLAVCLRIQVNKDNKEFKDLPPERAFADFVLCNLVLHLVIMNFLG
notes: bait, Gal4 DBD fusion; also called PN20251
As to B12, in the assay with OsEXPB2 aa 80-207, the binding result is “binds”.
